Reference: article PMC10157535, “Structural basis of phosphorylation-induced activation of the response regulator VbrR”

Assays:
[1] = molecular target: VbrR DNA-binding domain (DBD, 125-220) (Vibrio parahaemolyticus); experiment: SEC-MALS; SEC-MALLS, Superdex-200 10/30, buffer A (20 mM Tris-HCl pH 8.0, 100 mM NaCl), 100 uL of ~10 mg/mL protein injected, 0.5 mL/min; no BeF3-
[2] = molecular target: VbrR receiver domain (RD, 1-117) (Vibrio parahaemolyticus); experiment: SEC-MALS; SEC-MALLS, Superdex-200 10/30, buffer A supplemented with 5.3 mM BeSO4, 35 mM NaF and 7 mM MgCl2 (BeF3-), 100 uL of ~10 mg/mL protein injected
[3] = molecular target: full-length VbrR (response regulator VbrR from Vibrio parahaemolyticus) (Vibrio parahaemolyticus); experiment: SEC-MALS; SEC-MALLS, Superdex-200 10/30, buffer A (20 mM Tris-HCl pH 8.0, 100 mM NaCl), 100 uL of ~10 mg/mL protein injected, 0.5 mL/min; no BeF3-
[4] = molecular target: T1, VbrR DBD (monomer fraction) (Vibrio parahaemolyticus, UniProt A0A0L8SKF9 125-220); experiment: BLI; DBD monomer; BLI (Octet RED, biotinylated protein on streptavidin sensors), PBS: 10 mM phosphate pH 7.4, 2.7 mM KCl, 137 mM NaCl, 25 C; 1:1 fit; conditions: protein: recombinant, tags: N-terminal 6xHis
T1 sequence: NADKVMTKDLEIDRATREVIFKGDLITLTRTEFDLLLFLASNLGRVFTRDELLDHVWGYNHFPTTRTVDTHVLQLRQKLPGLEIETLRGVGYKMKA

VbrR (state not stated) [5] = molecular target: T2, VbrR (state not stated) (Vibrio parahaemolyticus, UniProt A0A0L8SKF9 1-220); experiment: BLI; 2.5-80 uM DNA; oligomeric state not stated; BLI (Octet RED, biotinylated protein on streptavidin sensors), PBS: 10 mM phosphate pH 7.4, 2.7 mM KCl, 137 mM NaCl, 25 C; 1:1 fit; conditions: protein: recombinant, tags: N-terminal 6xHis, chain copies: 2
T2 sequence: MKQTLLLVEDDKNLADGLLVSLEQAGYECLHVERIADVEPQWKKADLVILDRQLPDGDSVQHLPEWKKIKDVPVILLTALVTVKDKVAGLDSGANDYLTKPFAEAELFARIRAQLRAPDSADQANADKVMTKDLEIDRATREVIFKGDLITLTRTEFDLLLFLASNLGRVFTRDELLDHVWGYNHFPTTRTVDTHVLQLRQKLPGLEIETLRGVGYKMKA

VbrR (monomer fraction) [6] = molecular target: T3, VbrR (monomer fraction) (Vibrio parahaemolyticus, UniProt A0A0L8SKF9 1-220); experiment: BLI; VbrR monomer; BLI (Octet RED, biotinylated protein on streptavidin sensors), PBS: 10 mM phosphate pH 7.4, 2.7 mM KCl, 137 mM NaCl, 25 C; 1:1 fit; conditions: protein: recombinant; tags: N-terminal 6xHis; biotinylated for BLI
T3 sequence: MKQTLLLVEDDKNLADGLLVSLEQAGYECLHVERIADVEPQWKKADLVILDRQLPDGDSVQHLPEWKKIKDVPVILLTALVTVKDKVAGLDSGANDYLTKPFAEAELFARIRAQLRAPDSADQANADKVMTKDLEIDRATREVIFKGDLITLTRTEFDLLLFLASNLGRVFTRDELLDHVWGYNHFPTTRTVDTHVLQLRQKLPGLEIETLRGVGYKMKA

VbrR (state not stated) [7] = molecular target: T2, VbrR (state not stated); experiment: BLI; 10-160 uM DNA; text order of the two values (0.69, 0.77) matches 30 bp then 49 bp; BLI (Octet RED, biotinylated protein on streptavidin sensors), PBS: 10 mM phosphate pH 7.4, 2.7 mM KCl, 137 mM NaCl, 25 C; 1:1 fit; conditions: protein: recombinant, tags: N-terminal 6xHis, chain copies: 2
VbrR (monomer fraction) [8] = molecular target: T3, VbrR (monomer fraction); experiment: crystal structure; 4.6 A; VbrR dimer on DNA; BLI (Octet RED, biotinylated protein on streptavidin sensors), PBS: 10 mM phosphate pH 7.4, 2.7 mM KCl, 137 mM NaCl, 25 C; 1:1 fit; conditions: protein: recombinant; tags: N-terminal 6xHis; biotinylated for BLI; chain copies: 2; blunt

VbrR DNA-binding domain (DBD, 125-220) (domain or fragment)
stoichiometry N [1]: 2

VbrR receiver domain (RD, 1-117) (domain or fragment)
stoichiometry N [2]: 2

full-length VbrR (response regulator VbrR from Vibrio parahaemolyticus) (natural protein)
stoichiometry N [3]: 2

B1: exsC promoter 49 bp (dsDNA)
DNA 1: AACACAATTCTAATTCTTCATCGCTTGTCGATATAAACCAAAATCCCAC
DNA 2: GTGGGATTTTGGTTTATATCGACAAGCGATGAAGAATTAGAATTGTGTT
Kd [4]: 140 nM
Kd (VbrR (state not stated) [5]): 770 nM
Kd (VbrR (monomer fraction) [6]): 270 nM

B2: exsC promoter 30 bp (dsDNA)
DNA 1: AACACAATTCTAATTCTTCATCGCTTGTCG
DNA 2: CGACAAGCGATGAAGAATTAGAATTGTGTT
Kd (VbrR (state not stated) [7]): 690 nM

B3: exsC promoter 26 bp (dsDNA)
DNA 1: CACAATTCTAATTCTTCATCGCTTGT
DNA 2: ACAAGCGATGAAGAATTAGAATTGTG
binding result (VbrR (monomer fraction) [8]): binds
